Assay results published in PMC12746902, “Pathogenic Gαo Mutants Drive Dominant GPCR Coupling in GNAO1 Encephalopathies” (The FASEB Journal, 2025).

Key:
[1] = molecular target: M2 muscarinic acetylcholine receptor with C-terminal split-YFP fragment YN (M2R-YN) (UniProt P08172)
[2] = molecular target: M2 muscarinic acetylcholine receptor with C-terminal split-YFP fragment YN (M2R-YN) (UniProt P08172); remark: listed apart in the source
[3] = molecular target: T1, M2 muscarinic acetylcholine receptor with C-terminal split-YFP fragment YN (M2R-YN) (UniProt P08172 1-466); experiment: cell-based or functional assay
T1 sequence (looked up): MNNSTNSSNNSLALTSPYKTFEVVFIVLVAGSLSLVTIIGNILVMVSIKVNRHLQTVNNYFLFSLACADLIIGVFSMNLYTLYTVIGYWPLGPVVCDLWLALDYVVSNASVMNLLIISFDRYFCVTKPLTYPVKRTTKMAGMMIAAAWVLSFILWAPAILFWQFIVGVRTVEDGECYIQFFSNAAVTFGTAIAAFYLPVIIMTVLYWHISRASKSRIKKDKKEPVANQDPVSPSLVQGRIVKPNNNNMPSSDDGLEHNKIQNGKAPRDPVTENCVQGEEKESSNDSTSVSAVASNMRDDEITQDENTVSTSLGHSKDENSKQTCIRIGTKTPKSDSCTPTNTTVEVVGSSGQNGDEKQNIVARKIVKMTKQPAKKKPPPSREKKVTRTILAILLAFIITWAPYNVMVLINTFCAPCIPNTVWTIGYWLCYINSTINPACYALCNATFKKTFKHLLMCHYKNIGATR

Work on “Gαo ins4A (four-alanine insertion in the C-terminal α5-helix) with internal split-YFP fragment YC at Gly92 (from UniProt P09471 1-354) (natural protein)” yielded a reduction of ACh-mediated M2R phosphorylation (pT307/pS309 relative to total M2R) in immunoprecipitated split-YFP complexes, 100 μM ACh for 5 min [1] of over 90% and a reduction of ACh-mediated phosphorylation (pT307/pS309 relative to total receptor) of immunoprecipitated GFP-M2R with co-expressed UNTAGGED Gαo ins4A, 100 μM ACh for 5 min [2] of 95%.

B1: Gαo T241_N242insPQ with internal split-YFP fragment YC at Gly92 (natural protein, UniProt P09471 1-354, looked up)
chain: MGCTLSAEERAALERSKAIEKNLKEDGISAAKDVKLLLLGAGESGKSTIVKQMKIIHEDGFSGEDVKQYKPVVYSNTIQSLAAIVRAMDTLGIEYGDKERKADAKMVCDVVSRMEDTEPFSAELLSAMMRLWGDSGIQECFNRSREYQLNDSAKYYLDSLDRIGAADYQPTEQDILRTRVKTTGIVETHFTFKNLHFRLFDVGGQRSERKKWIHCFEDVTAIIFCVALSGYDQVLHEDETTPQNRMHESLMLFDSICNNKFFIDTSIILFLNKKDLFGEKIKKSPLTICFPEYTGPNTYEDAAAYIQAQFESKNRSPNKEIYCHMTCATDTNNIQVVFDAVTDIIIANNLRGCGLY
With B1 the “reduction of ACh-mediated phosphorylation (pT307/pS309 relative to total receptor) of immunoprecipitated GFP-M2R with co-expressed UNTAGGED Gαo insPQ, 100 μM ACh for 5 min” value [3] was 30%.
